In article PMC9455977, “Deciphering the Regulatory Circuits of RA3 Replication Module - Mechanisms of the Copy Number Control”:

Experiments:
Conditions in all cases: protein: recombinant; tags: N-terminal His6; chain copies: 2; label: none (ethidium bromide stain); blunt
RepA (His6-RepA) [1] = target: T1, RepA (His6-RepA) (plasmid RA3 (IncU, isolated from …, UniProt Q209K0 1-98)); assay: EMSA; bound at 0.1 uM RepA; 25 mM Tris-HCl pH 8.0, 5 mM MgCl2, 40 mM NaCl, 0.5 mg/mL BSA, 30 min at 37 C, 20 uL; 30 ng PCR fragment (0.8% agarose) or 150 ng ds oligo (10% native PAGE), 0.5x TBE
T1 sequence: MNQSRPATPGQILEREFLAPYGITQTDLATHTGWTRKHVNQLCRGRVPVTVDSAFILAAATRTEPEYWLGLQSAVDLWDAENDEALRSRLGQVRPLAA

RepA (His6-RepA) [2] = target: T1, RepA (His6-RepA); assay: EMSA; no binding up to 4 uM RepA; 25 mM Tris-HCl pH 8.0, 5 mM MgCl2, 40 mM NaCl, 0.5 mg/mL BSA, 30 min at 37 C, 20 uL; 30 ng PCR fragment (0.8% agarose) or 150 ng ds oligo (10% native PAGE), 0.5x TBE
RepA (His6-RepA) [3] = target: T1, RepA (His6-RepA); assay: EMSA; no binding up to 4 uM RepA

B1: IR1 (dsDNA)
DNA 1: TTGAAGTTTACCAACTAGGTTACACTTCAA
DNA 2: TTGAAGTGTAACCTAGTTGGTAAACTTCAA
RepA (His6-RepA) [1]
  binding result: binds

B2: IR2 (dsDNA)
DNA 1: AAACACATCATTCTGATGAGGGC
DNA 2: GCCCTCATCAGAATGATGTGTTT
RepA (His6-RepA) [2]
  binding result: no binding

B3: IR2* (dsDNA)
DNA 1: AAACAGTCGACTCTGATGAGGGC
DNA 2: GCCCTCATCAGAGTCGACTGTTT
RepA (His6-RepA) [3]
  binding result: no binding
